From patent publication US20180339041A1 (Kyowa Kirin, published 2018)

What was measured:
[1] = molecular target: T1, C-terminally FLAG-tagged human Gas6 recombinant protein (hGas6-F) (human, UniProt Q14393 31-678, gamma-carboxylated glutamic acid residues in the Gla domain (producer cells co-express rat VKOR and human GGCX); positions not given); assay: ELISA: hGas6-F (1 µg/mL) captured on coated anti-FLAG M2 antibody; biotinylated test antibody; streptavidin-HRP/TMB; absorbance 450-570 nm, N=2 (Example 6) [A]
T1 construct: also called human Gas6-F; human Gas6 protein
T1 sequence: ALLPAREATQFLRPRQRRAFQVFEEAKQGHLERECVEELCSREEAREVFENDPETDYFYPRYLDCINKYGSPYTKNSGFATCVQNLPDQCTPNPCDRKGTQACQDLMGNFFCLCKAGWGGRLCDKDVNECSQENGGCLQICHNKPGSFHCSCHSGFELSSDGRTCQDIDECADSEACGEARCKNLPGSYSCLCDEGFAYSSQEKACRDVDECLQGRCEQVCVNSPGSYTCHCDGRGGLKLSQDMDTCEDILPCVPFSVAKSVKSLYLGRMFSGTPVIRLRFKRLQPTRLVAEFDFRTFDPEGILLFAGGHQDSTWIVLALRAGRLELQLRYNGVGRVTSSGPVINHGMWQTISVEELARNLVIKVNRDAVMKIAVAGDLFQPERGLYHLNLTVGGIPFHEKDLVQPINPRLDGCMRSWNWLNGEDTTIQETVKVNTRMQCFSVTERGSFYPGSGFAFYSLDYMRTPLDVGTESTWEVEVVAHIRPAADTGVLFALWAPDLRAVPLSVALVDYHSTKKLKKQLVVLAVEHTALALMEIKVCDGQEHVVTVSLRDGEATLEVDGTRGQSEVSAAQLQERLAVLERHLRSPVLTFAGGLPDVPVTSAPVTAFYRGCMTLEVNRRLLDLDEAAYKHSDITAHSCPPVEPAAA
Description: (§1) First, 2 μg/mL anti-FLAG antibody [Monoclonal ANTI-FLAG M2 antibody produced in mouse (manufactured by Sigma-Aldrich Co. LLC) diluted with PBS (manufactured by Nacalai Tesque, Inc.)] was dispensed at 50 μL/well to a 96-well plate for ELISA (manufactured by Nalge Nunc International), and the plate was left standing overnight at 4° C. for adsorption. After removal of the immobilization solution, 1% BSA-PBS (manufactured by Nacalai Tesque, Inc.) was added thereto at 300 μL/well, and the plate was left standing at room temperature for 1 hour for blocking and washed five times with Tween 20-PBS (manufactured by Wako Pure Chemical Industries Ltd.).
(§2) Each antibody solution was dispensed thereto at 50 μL/well, and the plate was left standing at room temperature for 1 hour. This plate was washed five times with Tween 20-PBS. Then, Streptavidin HRP Conjugate (manufactured by R&D Systems, Inc.) diluted 200-fold with 1% BSA-PBS was dispensed thereto at 50 μL/well, and the plate was left standing at room temperature for 1 hour. This plate was washed five times with Tween 20-PBS, and TMB (manufactured by Sigma-Aldrich Co. LLC) was added thereto at 50 μL/well and reacted. […] The absorbance at a sample wavelength of 450 nm and a reference wavelength of 570 nm (450 nm-570 nm) was measured using a plate reader.

[2] = molecular target: T2, C-terminally FLAG-tagged mouse Gas6 recombinant protein (mGas6-F) (mouse, UniProt Q61592 28-674, limits assumed, gamma-carboxylated glutamic acid residues in the Gla domain (producer cells co-express rat VKOR and human GGCX); positions not given); assay: competition ELISA: mAxl-mFc coated; mGas6-F at 50 ng/mL final premixed with the antibody; bound Gas6-F detected with anti-FLAG M2-HRP; blocked partner mAxl-mFc (Examples 5(4) and 7) [C]
T2 construct: also called mouse Gas6-F
T2 sequence (looked up): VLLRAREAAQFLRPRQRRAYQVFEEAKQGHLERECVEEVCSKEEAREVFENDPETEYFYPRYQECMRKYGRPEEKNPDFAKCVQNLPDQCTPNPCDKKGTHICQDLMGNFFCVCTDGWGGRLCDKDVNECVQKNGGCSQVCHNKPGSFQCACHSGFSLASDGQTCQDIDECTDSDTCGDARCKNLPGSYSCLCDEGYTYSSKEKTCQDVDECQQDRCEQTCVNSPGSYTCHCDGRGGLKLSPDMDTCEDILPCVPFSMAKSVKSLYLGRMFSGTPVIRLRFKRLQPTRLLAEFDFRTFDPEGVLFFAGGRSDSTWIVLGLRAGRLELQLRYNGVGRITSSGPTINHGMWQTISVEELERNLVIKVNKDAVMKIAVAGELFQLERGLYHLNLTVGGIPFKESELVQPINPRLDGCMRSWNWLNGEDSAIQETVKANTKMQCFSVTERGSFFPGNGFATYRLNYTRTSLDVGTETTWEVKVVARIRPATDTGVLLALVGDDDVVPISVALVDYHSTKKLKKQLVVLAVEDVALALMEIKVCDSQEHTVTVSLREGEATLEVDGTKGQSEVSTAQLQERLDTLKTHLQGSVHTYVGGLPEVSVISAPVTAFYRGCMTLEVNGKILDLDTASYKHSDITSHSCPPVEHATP

[3] = molecular target: T2, C-terminally FLAG-tagged mouse Gas6 …; assay: ELISA: mGas6-F (1 µg/mL) captured on coated anti-FLAG M2 antibody; biotinylated test antibody; streptavidin-HRP/TMB; absorbance 450-570 nm, N=2 (Example 6) [D]
Description: as §1, §2

B1: anti-human Gas6 mouse monoclonal antibody KM5320 (KM5320-mKG1 antibody) (antibody, V domains shown)
VH: QIQLVQSGPELKKPGETVKISCKASGYTFTNYGMNWVKQAPGKGLKWMGWINTETGEPTYSDDFKGRFAFSLETSATTAYLQINNLRNEDMATYFCAREDGYYGTLDYWGQGTSVTVSS
VL: SIVMTQTPKFLLVSAGDRVTITCKASQSVSNDVAWYQQKPGQSPKVLIYYASNRYTGVPDRFTGSGYGTDFTFTISTVQAEDLAVYFCQQDYSSPWTFGGGTKLEIK
notes: Hybridoma-derived mouse IgG1, kappa; also called KM5320 antibody
- EC50 (read off the curve) [1]: ~3 ng/mL
- IC50 (read off the curve) [2]: ~90 ng/mL
- EC50 (read off the curve) [3]: ~3 ng/mL

B2: anti-human Gas6 mouse monoclonal antibody KM5321 (KM5321-mKG1 antibody) (antibody, V domains shown)
VH: QIQLVQSGPELKKPGETVKISCRASGYTFTNYGMNWVKQAPGKGLKWMGWINTNTGEPTYTEEFKGRFAFSLETSATTAYLQINDLKNEDTATYFCARDEGWFVYWGQGTLITVSA
VL: ETTVTQSPASLSVATGEKVTIRCITSTDIDDDMNWYQQKPGEPPKLLISEGNTLRPGVPSRFSSSGYGTDFVFTIENTLSEDVADYYCLQTDSVPLTFGAGTKLELK
notes: Hybridoma-derived mouse IgG1, kappa; also called KM5321 antibody
- EC50 (read off the curve) [1]: ~4 ng/mL
- IC50 (read off the curve) [2]: ~30 ng/mL
- EC50 (read off the curve) [3]: ~4 ng/mL
